{
  "source": "the DeepSol protein solubility set",
  "data": [
    {"test": "soluble on expression in E. coli; label from the status in PepcDB or PDB records", "values": [
      {"sequence": "SNGSSVASTSPSVKCKEDQGLNGHEEKENPFAEYMWMENEEDFNRQVEEELQEQDFLDRCFQEMLDEEDQDWFIPARDLPQAVGHLQQQLNGLSVGDSHESEDILSKSNLNPDAKEFVPGVKY", "soluble on expression in E. coli": "soluble"},
      {"sequence": "SNQEKLAKLQAQVRIGGKGTARRKKKVVHRTATADDKKLQSSLKKLAVNNIAGIEEVNMIKDDGTVIHFNNPKVQASLSANTFAITGHAEAKPITEMLPGILSQLGADSLTSLRKLAEQFPRQVLDSKAPKPEDIDEEDDDVPDLVENFDEASKNEAN", "soluble on expression in E. coli": "soluble"},
      {"sequence": "SNSALYNVDAGHRAVIFDRFRGVQDIVVGEGTHFLIPWVQKPIIFDCRSRPRNVPVITGSKDLQNVNITLRILFRPVASQLPRIYTSIGEDYDERVLPSITTEILKSVVARFDAGELITQRELVSRQVSDDLTERAATFGLILDDVSLTHLTFGKEFTEAVEAKQVAQQEAERARFVVEKAEQQKKAAIISAEGDSKAAELIANSLATAGDGLIELRKLEAAEDIAYQLSRSRNITYLPAGQSVLLQLPQ", "soluble on expression in E. coli": "soluble"},
      {"sequence": "SNSSPPPANSANGDTTNNGENGQDLNLNFLDKIRLSTKRDAKEDEGEELPTELNTINSAGGFLVVSPDKLSVKYTNTNLHGHDVGVVQANKPAPIKCLTYYFEIFVKDSGIKGQIAIGFTKESFKMRRQPGWEVNSCGYHGDDGYLYRGQGKGEPFGPKFTKDDAVGGGINYASQEFFFTKNGTIVGKIPKDIRGHLFPTVAVHSQNEEVLVNFGKKKFAFDIKGYEASERNKQQLAIEKISIPPNIGYGLVKTYLLHYGYEETLDAFNLATKNTVPPIHIDQENAIDEDDSSYALKQRKNLRQLVRNGEIDTALAELQKLYPQIVQDDKSVVCFLLHCQKFIELVRVGKLEEGVNYGRLELAKFVGLTGFQDIVEDCFALLAYEKPEESSVWYFLEDSQRELVADAVNAAILSTNPNKKDVQRSCHLQSHLEKLLRQLTVCCLERRSLNGDQGETFRLRHVLNNNR", "soluble on expression in E. coli": "soluble"},
      {"sequence": "SNVFARSSVLAAEMIDVFDRTHTEKELVFQSKELCRDFIHSRITREGLSWSKVELDLPEPRGVLVDVSVVLLKLGDELECMRPYVYRNIAKQLNISVSVEAVVSDAFLSVATEVIAMGITWGKVVAIYAVAAGLAVDCVRLGHPVMVHTIVDSLGEFVRRSLVPWLKKRGGWVDILKCVVNMDSRAHVHWLSTAVLTWREFIKTMYVYLTK", "soluble on expression in E. coli": "soluble"},
      {"sequence": "SPDHLFPPKPNTRVVVAKFPMGAVTVEDLLVLGKPFGTVVKHLVLPAKGFLEFSAHKEAVNMVNHFQQKPAFVKDTRVGLYLSPRVEGIHSPPKYDEPVPKRLKRTNNPSVVCFSHLPPGEDNQAEVLELAAMFGEVWQSKFLDGKALIEMVDWRDADIMVKYYYSNPLKIQGKSIKVTMSYIKSLREMPGELTPRKSDSSKHSRQKEESSVKDKADDTNQESSEKETKTIKTPEQSQEEGVQLEEGTDHYNNLKLKHAVEEQADGQPDGE", "soluble on expression in E. coli": "soluble"},
      {"sequence": "SPMANSGPLCCTICHERLEDTHFVQCPSVPSHKFCFPCSRESIKAQGATGEVYCPSGEKCPLVGSNVPWAFMQGEIATIL", "soluble on expression in E. coli": "soluble"},
      {"sequence": "SQPKVPEWVNTPSTCCLKYYEKVLPRRLVVGYRKALNCHLPAIIFVTKRNREVCTNPNDDWVQEYIKDPNLPLLPTRNLSTVKIITAKNGQPQLLNSQ", "soluble on expression in E. coli": "soluble"},
      {"sequence": "SQTREDSVYLAKLAEQAERYEEMVENMKAVASSGQELSVEERNLLSVAYKNVIGARRASWRIVSSIEQKEESKEKSEHQVELIRSYRSKIETELTKISDDILSVLDSHLIPSATTGESKVFYYKMKGDYHRYLAEFSSGDAREKATNSSLEAYKTASEIATTELPPTHPIRLGLALNFSVFYYEIQNSPDKACHLAKQAFDDAIAELDTLSEESYKDSTLIMQLLRDNLTLWTSDISESGQEDQQQQQQQQQQQQQQQQQAPAEQTQGEPTK", "soluble on expression in E. coli": "soluble"},
      {"sequence": "SRENLGRIQFSVGYNFQESTLTVKIMKAQELPAKDFSGTSDPFVKIYLLPDKKHKLETKVKRKNLNPHWNETFLFEGFPYEKVVQRILYLQVLDYDRFSRNDPIGEVSIPLNKVDLTQMQTFWKDLKP", "soluble on expression in E. coli": "soluble"},
      {"sequence": "SSEASRDDYKIQSFDAQTQQLLKTALKDPGAVDLERVANVIVDHSLQDCVFSKEAGRMCYAIIQAESKQAGQSVFRRGLLNRLQKEYDAREQLRACSLQGWVCYVTFICNIFDYLRVNNMPMMALVNPVYDCLFQLAQPESLSREEEVDCLVLQLHRVGEQLEKMNGQRMDELFILIRDGFLLPTDLSSLARLLLLEMIEFRAAGWKTTPAAHKYYYSEVSD", "soluble on expression in E. coli": "soluble"},
      {"sequence": "SSGGGTETPVACDAAQGGKKRDSLGTPGAAHLIIKDLGEIHSRLLDHRPVTQGEIRYFVKEFEEKRGLRELRVLKNLENTIQETNECLLPKCRETMECGLGETLQRLQAANDSICRLQQREQERKKVINDYLTASEKRRLVQWEEFVSGQPQRRAEVDEEHRRAVERLREQYAAMEKDLAKFSTF", "soluble on expression in E. coli": "soluble"},
      {"sequence": "SSGRSVRAETRSRAKDDIKKVMAAIEKVRKWEKKWVTVGDTSLRIFKWVPVTDSKEKEKSKSNSSAAREPNGFPSDASANSSLLLEFQDENSNQSSVSDVYQLKVDSSTNSSPSPQQSESLSPAHTSDFRTDDSQPPTLGQEILEEPSLPSSEVADEPPTLTKEEPVPLETQVVEEEEDSGAPPLKRFCVDQPTVPQTASES", "soluble on expression in E. coli": "soluble"},
      {"sequence": "SSLVRRIISTAKAPAAIGPYSQAVLVDRTIYISGQLGMDPASGQLVPGGVVEEAKQALTNIGEILKAAGCDFTNVVKATVLLADINDFSAVNDVYKQYFQSSFPARAAYQVAALPKGGRVEIEAIAVQGPLTTASL", "soluble on expression in E. coli": "soluble"},
      {"sequence": "SSMTSRYKRSIESATNVATELSKGNYDARTYGGYIRRSDKLGHAMNSLAIDLMEMTRTQEMQRDRLLTVIENIGSGLIMIDGRGFINLVNRSYAKQFHINPNHMLRRLYHDAFEHEEVIQLVEDIFMTETKKCKLLRLPIKIERRYFEVDGVPIMGPDDEWKGIVLVFHDMTETKKLEQMRKDFVANVSHELKTPITSIKGFTETLLDGAMEDKEALSEFLSIILKESERLQSLVQDLLDLSKIEQQNFTLSIETFEPAKMLGEIETLLKHKADEKGISLHLNVPKDPQYVSGDPYRLKQVFLNLVNNALTYTPEGGSVAINVKPREKDIQIEVADSGIGIQKEEIPRIFERFYRVDKDRSRNSGGTGLGLAIVKHLIEAHEGKIDVTSELGRGTVFTVTLKRAAEKSA", "soluble on expression in E. coli": "not soluble"},
      {"sequence": "SSSKFQQVEQDVKAIEVSLSARIGVSVLDTQNGEYWDYNGNQRFPLTSTFKTIACAKLLYDAEQGKVNPNSTVEIKKADLVTYSPVIEKQVGQAITLDDACFATMTTSDNTAANIILSAVGGPKGVTDFLRQIGDKETRLDRIEPDLNEGKLGDLRDTTTPKAIASTLNKFLFGSALSEMNQKKLESWMVNNQVTGNLLRSVLPAGWNIADRSGAGGFGARSITAVVWSEHQAPIIVSIYLAQTQASMEERNDAIVKIGHSIFDVYTSQSR", "soluble on expression in E. coli": "soluble"},
      {"sequence": "SSSLHKSRIADFQDVLKEPSIALEKLRELSFSGIPCEGGLRCLCWKILLNYLPLERASWTSILAKQRELYAQFLREMIIQPGIAKANMGVSREDVTFEDHPLNPNPDSRWNTYFKDNEVLLQIDKDVRRLCPDISFFQRATDYPCLLILDPQNEFETLRKRVEQTTLKSQTVARNRSGVTNMSSPHKNSAPSSLNEYEVLPNGCEAHWEVVERILFIYAKLNPGIAYVQGMNEIVGPLYYTFATDPNSEWKEHAEADTFFCFTNLMAEIRDNFIKSLDDSQCGITYKMEKVYSTLKDKDVELYLKLQEQNIKPQFFAFRWLTLLLSQEFLLPDVIRIWDSLFADDNRFDFLLLVCCAMLMLIREQLLEGDFTVNMRLLQDYPITDVCQILQKAKELQDSK", "soluble on expression in E. coli": "soluble"},
      {"sequence": "SSTHGSRFPLCGGRRDHKGLTHIFNPPPKRFESILEGLFGPALLKDLSLFKDCEPESISDWTFDENCLFCCLRRDKVKGHLVGLDEPASGAGQEALLKQEQAKIIRFERQAEEFLNAVFYRKDSPWVSDPNIPLVAREIMQRMIQQFAAEYTSKNSSTQDPSQPNSTKNQSLPKASPVTTSPTAATTQNPVLSKLLMADQDSPLDLTVRKSQSEPSEQDGVLDLSTKKSPCAGSTSLSHSPGCSSTQGNGRPGRPSQYRPDGLRSGDGVPPRSLQDGTREGFGHSTSLKVPLARSLQISEELLSRNQLSTAASLGPSGLQNHGQHLILSREASWAKPHYEFNLSRMKFRGNGALSNISDLPFLAENSAFPKMALQAKQDGKKDVSHSSPVDLKIPQVRGMDLSWESRTGDQYSYSSLVMGSQTESALSKKLRAILPKQSRKSMLDAGPDSWGSDAEQSTSGQPYPTSDQEGDPGSKQPRKKRGRYRQYNSEILEEAISVVMSGKMSVSKAQSIYGIPHSTLEYKVKERLGTLKNPPKKKMKLMRSEGPDVSVKIELDPQGEAAQSANESKNE", "soluble on expression in E. coli": "soluble"},
      {"sequence": "SSVPPGSIIVSDWHRCPDSREFFSKILHKKRRRKFGLLEAPMMPPQMNVDLVRYKVFLSGKTGVGKSALAARLAGLDLPKMHYETTGIETTVVFWPVRLKESGRVLFFRFELWDCGESAMRRFDHMLLSCKEKVDAILFLFSFTDRGSFDDLTNQISRITEPSDRVVKLVVGTKFDLFMHTDVTESDVTHFQEVWGLPVFRVGGDVSAGLGEVAPLLNALAENLWHQDCMAASSVSISPQAALRETSSEIIV", "soluble on expression in E. coli": "not soluble"},
      {"sequence": "SSWFRAAPENASPGDQDVFDEEADESLLAQREWQGHMRKRVQEGYRDGLDAGKALTLQRGFNQGYKEGADVIINYGLLRGTLSALLSWCHLHGNSSTLISKISNLLDTVDQCEECVLRRLKSVTSQPRVTDLLDAIEDMDLCHVVPSDQAKGDSNAEINTDSDSPNGMGCSHPEHCRPKEHAHLEKPSLSWILEQTSSLVKQLGVPADILQHLRQL", "soluble on expression in E. coli": "soluble"},
      {"sequence": "SSWIPFKIGQPKKQIVSKTVERDFEREYGKLQQLEEQTKRLQKDMKKSTDADLAMSKSAVKISLDLLSNPLCEQDQDFLRMVTALDTAMKRMDAFNQEKVNQIQKTVIEPLKKFGSIFPSLNMAVKRREQALQDYGRLQAKVEKYEEKEKTGPVLAKLHQAREELRPVREDFEAKNKQLLDEMPRFYNSRLDYFQPSFESLIRAQVIYYSEMHKIFGDLTQQLDQPGHSDEHRERENETKLSELRALSIVADD", "soluble on expression in E. coli": "soluble"},
      {"sequence": "STGKKPKHHVLSHDIIPASKPIAEKLQIQPESPVVELKRILYNDDQPLTFEVTHYPLDLFPGIDTFIADGVSMHDILKQQYKVVPTHNTKLLNVVYAQQEESKYLDCDIGDALFEIDKTAFTSNDQPIYCSLFLMHTNRVTFTINSPYT", "soluble on expression in E. coli": "soluble"}
    ]}
  ]
}
